Assay results published in US20160327558.
Residue numbers refer to the chain shown, from its start. In names and notes the source's numbering stands.

What was measured:
probe 5 (FITC-LRSR-AOMK) = biological target: T1, probe 5 (FITC-LRSR-AOMK)
T1 chain: LRSR

z-VRPR-FMK = biological target: T2, z-VRPR-FMK (not fully specified)
T2 chain: VRPR

FLAG-A20, P21580 = biological target: T3, FLAG-A20, P21580
T3 chain: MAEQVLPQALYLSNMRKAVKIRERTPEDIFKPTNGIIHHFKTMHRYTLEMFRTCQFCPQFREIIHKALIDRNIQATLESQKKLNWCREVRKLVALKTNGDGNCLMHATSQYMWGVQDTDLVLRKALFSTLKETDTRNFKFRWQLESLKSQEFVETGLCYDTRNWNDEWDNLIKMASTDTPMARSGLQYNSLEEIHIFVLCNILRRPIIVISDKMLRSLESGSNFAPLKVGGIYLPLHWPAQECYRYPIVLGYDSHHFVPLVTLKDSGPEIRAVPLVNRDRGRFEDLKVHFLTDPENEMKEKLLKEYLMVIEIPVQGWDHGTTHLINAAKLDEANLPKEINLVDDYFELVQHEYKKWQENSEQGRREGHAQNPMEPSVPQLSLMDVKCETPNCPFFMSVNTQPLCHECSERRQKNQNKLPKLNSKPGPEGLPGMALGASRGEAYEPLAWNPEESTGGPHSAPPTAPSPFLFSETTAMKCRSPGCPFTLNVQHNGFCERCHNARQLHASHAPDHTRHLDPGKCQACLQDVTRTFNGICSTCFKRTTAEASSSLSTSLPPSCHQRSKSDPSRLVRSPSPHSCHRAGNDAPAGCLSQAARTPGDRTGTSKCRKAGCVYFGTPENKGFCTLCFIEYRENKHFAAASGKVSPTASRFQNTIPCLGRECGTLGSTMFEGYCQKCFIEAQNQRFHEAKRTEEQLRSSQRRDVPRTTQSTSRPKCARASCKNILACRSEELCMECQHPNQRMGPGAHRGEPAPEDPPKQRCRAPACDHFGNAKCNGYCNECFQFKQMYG

B1: MALT1 (in vitro cleavage assay of FIG. 3C) (protein)
chain: MSLLGDPLQALPPSAAPTGPLLAPPAGATLNRLREPLLRRLSELLDQAPEGRGWRRLAELAGSRGRLRLSCLDLEQCSLKVLEPEGSPSLCLLKLMGEKGCTVTELSDFLQAMEHTEVLQLLSPPGIKITVNPESKAVLAGQFVKLCCRATGHPFVQYQWFKMNKEIPNGNTSELIFNAVHVKDAGFYVCRVNNNFTFEFSQWSQLDVCDIPESFQRSVDGVSESKLQICVEPTSQKLMPGSTLVLQCVAVGSPIPHYQWFKNELPLTHETKKLYMVPYVDLEHQGTYWCHVYNDRDSQDSKKVEIIIDELNNLGHPDNKEQTTDQPLAKDKVALLIGNMNYREHPKLKAPLVDVYELTNLLRQLDFKVVSLLDLTEYEMRNAVDEFLLLLDKGVYGLLYYAGHGYENFGNSFMVPVDAPNPYRSENCLCVQNILKLMQEKETGLNVFLLDMCRKRNDYDDTIPILDALKVTANIVFGYATCQGAEAFEIQHSGLANGIFMKFLKDRLLEDKKITVLLDEVAEDMGKCHLTKGKQALEIRSSLSEKRALTDPIQGTEYSAESLVRNLQWAKAHELPESMCLKFDCGVQIQLGFAAEFSNVMIIYTSIVYKPPEIIMCDAYVTDFPLDLDIDPKDANKGTPEETGSYLVSKDLPKHCLYTRLSSLQKLKEHLVFTVCLSYQYSGLEDTVEDKQEVNVGKPLIAKLDMHRGLGRKTCFQTCLMSNGPYQSSAATSGGAGHYHSLQDPFHGVYHSHPGNPSNVTPADSCHCSRTPDAFISSFAHHASCHFSRSNVPVETTDEIPFSFSDRLRISEK
- in vitro protease activity measurements (cleavage of fluorescent substrates) (probe 5 (FITC-LRSR-AOMK)): probe 5 and also z-VRPR-FMK did not only inhibit MALT1
- in vitro protease activity measurements (cleavage of fluorescent substrates) (z-VRPR-FMK): probe 5 and also z-VRPR-FMK did not only inhibit MALT1

B2: recombinant Caspase-8 (protein)
chain: SESQTLDKVYQMKSKPRGYCLIINNHNFAKAREKVPKLHSIRDRNGTHLDAGALTTTFEELHFEIKPHDDCTVEQIYEILKIYQLMDHSNMDCFICCILSHGDKGIIYGTDGQEAPIYELTSQFTGLKCPSLAGKPKVFFIQACQGDNYQKGIPVETDSEEQPYLEMDLSSPQTRYIPDEADFLLGMATVNNCVSYRNPAEGTWYIQSLCQSLRERCPRGDDILTILTEVNYEVSNKDDKKNMGKQMPQPTFTLRKKLVFPSD
- in vitro protease activity measurements (DEVD-AMC cleavage) (probe 5 (FITC-LRSR-AOMK)): As expected, Caspase 8 activity was not affected by the diagnostic inhibitors of MALT1 of the present invention

B3: FLAG-MALT1 wt (MALT1 Isoform B, overexpressed in Jurkat T cells) (protein)
chain: SLLGDPLQALPPSAAPTGPLLAPPAGATLNRLREPLLRRLSELLDQAPEGRGWRRLAELAGSRGRLRLSCLDLEQCSLKVLEPEGSPSLCLLKLMGEKGCTVTELSDFLQAMEHTEVLQLLSPPGIKITVNPESKAVLAGQFVKLCCRATGHPFVQYQWFKMNKEIPNGNTSELIFNAVHVKDAGFYVCRVNNNFTFEFSQWSQLDVCDIPESFQRSVDGVSESKLQICVEPTSQKLMPGSTLVLQCVAVGSPIPHYQWFKNELPLTHETKKLYMVPYVDLEHQGTYWCHVYNDRDSQDSKKVEIIIDELNNLGHPDNKEQTTDQPLAKDKVALLIGNMNYREHPKLKAPLVDVYELTNLLRQLDFKVVSLLDLTEYEMRNAVDEFLLLLDKGVYGLLYYAGHGYENFGNSFMVPVDAPNPYRSENCLCVQNILKLMQEKETGLNVFLLDMCRKRNDYDDTIPILDALKVTANIVFGYATCQGAEAFEIQHSGLANGIFMKFLKDRLLEDKKITVLLDEVAEDMGKCHLTKGKQALEIRSSLSEKRALTDPIQGTEYSAESLVRNLQWAKAHELPESMCLKFDCGVQIQLGFAAEFSNVMIIYTSIVYKPPEIIMCDAYVTDFPLDLDIDPKDANKGTPEETGSYLVSKDLPKHCLYTRLSSLQKLKEHLVFTVCLSYQYSGLEDTVEDKQEVNVGKPLIAKLDMHRGLGRKTCFQTCLMSNGPYQSSAATSGGAGHYHSLQDPFHGVYHSHPGNPSNVTPADSCHCSRTPDAFISSFAHHASCHFSRSNVPVETTDEIPFSFSDRLRISEK
- MALT1 cleavage of A20, analyzed by western blot (FLAG-A20, P21580): only wt MALT1 is capable of cleaving its substrates

B4: FLAG-MALT1 active site mutant C464A (C453A in Isoform B) (protein)
chain: B3 chain with C452A
- MALT1 cleavage of A20, analyzed by western blot (FLAG-A20, P21580): only wt MALT1 is capable of cleaving its substrates (the mutant does not cleave)
